Seven molecules from US20170306031A1 (NGM BIOPHARMACEUTICALS, published 2017) can be followed below.

The target in test [1] is T1, human GFRAL expressed on cells (human, UniProt Q6UXV0 20-394).
T1 sequence: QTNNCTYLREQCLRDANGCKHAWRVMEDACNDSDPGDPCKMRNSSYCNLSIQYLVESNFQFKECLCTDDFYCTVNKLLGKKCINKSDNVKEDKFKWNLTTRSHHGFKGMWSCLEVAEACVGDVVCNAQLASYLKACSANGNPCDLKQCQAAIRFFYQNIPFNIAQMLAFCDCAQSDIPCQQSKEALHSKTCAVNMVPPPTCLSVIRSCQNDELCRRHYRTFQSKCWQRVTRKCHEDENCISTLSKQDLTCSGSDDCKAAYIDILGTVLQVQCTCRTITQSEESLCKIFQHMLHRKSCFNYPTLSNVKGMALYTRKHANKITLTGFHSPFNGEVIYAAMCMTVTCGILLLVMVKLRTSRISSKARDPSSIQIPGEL
In words: cell-based or functional assay.

The target in test [2] is T2, mouse GFRAL expressed on cells (mouse, UniProt Q6SJE0 20-393).
T2 sequence: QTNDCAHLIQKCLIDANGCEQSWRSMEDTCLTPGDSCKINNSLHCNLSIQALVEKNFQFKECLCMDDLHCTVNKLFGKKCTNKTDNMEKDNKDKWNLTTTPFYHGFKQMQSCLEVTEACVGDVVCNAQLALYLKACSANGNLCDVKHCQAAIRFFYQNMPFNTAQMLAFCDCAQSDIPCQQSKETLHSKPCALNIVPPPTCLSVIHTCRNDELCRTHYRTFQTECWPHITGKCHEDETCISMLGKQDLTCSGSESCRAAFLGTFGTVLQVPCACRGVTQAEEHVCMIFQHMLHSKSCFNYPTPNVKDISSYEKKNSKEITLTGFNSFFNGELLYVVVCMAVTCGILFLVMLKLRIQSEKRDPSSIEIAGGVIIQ
The test can be described thus: cell-based or functional assay.

In test [3] the target is T1, human GFRAL expressed on cells. In words: cell-based or functional assay. This is another data set of the same source.
In test [4] the target is T3, human GFRAL (analyte in Biacore assays) (human, UniProt Q6UXV0 19-351, limits assumed).
T3 construct: injected in solution over captured antibody; also called hGFRAL
T3 sequence: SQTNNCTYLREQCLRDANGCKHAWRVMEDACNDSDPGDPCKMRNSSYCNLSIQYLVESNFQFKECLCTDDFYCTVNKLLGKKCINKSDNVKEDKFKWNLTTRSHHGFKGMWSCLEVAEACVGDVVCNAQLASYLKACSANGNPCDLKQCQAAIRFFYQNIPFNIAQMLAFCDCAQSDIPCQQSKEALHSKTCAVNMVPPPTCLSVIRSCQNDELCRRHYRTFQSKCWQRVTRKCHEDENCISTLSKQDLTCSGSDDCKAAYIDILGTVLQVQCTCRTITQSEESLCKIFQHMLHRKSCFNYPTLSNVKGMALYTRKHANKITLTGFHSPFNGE
In words: Biacore SPR, antibody captured, GFRAL injected. How it is done:
(§1) In addition, the binding affinity of antibodies to human and mouse GFRAL were measured. For example, antibodies were rank ordered based on their binding affinity to human GFRAL and mouse GFRAL by low resolution KD measurement by Biacore. Briefly, an anti-mouse Fc antibody (Sigma-Aldrich, St. Louis, Mo.) was immobilized on all four flow cells of a CM5 chip using amine coupling reagents (GE Healthcare LifeSciences, Piscataway, N.J.). Purified antibodies were captured (˜100 RUs) on flow cells 2, 3 and 4 using flow cell 1 as a reference. This was followed by injection of human or mouse GFRAL (25 nM in PBS-P buffer) at a flow rate of 70 μL/m in and monitoring the binding kinetics at 25° C.
(§2) Binding affinity measurements were also made in additional Biacore based assays. For example, equilibrium dissociation constant (KD) measurements were carried out with purified antibodies to evaluate their binding to human GFRAL or mouse GFRAL. As mentioned above, anti-mouse Fc antibody (Sigma-Aldrich, St. Louis, Mo.) was immobilized on all four flow cells of a CM5 chip using amine coupling reagents (GE Healthcare LifeSciences, Piscataway, N.J.). Purified antibodies were captured (˜100 RUs) on flow cells 2, 3 and 4 using flow cell 1 as a reference. This was followed by injection of human or mouse GFRAL in PBS-P buffer) at a flow rate of 70 μL/min and the binding kinetics were evaluated at 25° C.

In test [5] the target is T4, mouse GFRAL (analyte in Biacore assays) (mouse, UniProt Q6SJE0 20-349, limits assumed).
T4 construct: injected in solution over captured antibody
T4 sequence: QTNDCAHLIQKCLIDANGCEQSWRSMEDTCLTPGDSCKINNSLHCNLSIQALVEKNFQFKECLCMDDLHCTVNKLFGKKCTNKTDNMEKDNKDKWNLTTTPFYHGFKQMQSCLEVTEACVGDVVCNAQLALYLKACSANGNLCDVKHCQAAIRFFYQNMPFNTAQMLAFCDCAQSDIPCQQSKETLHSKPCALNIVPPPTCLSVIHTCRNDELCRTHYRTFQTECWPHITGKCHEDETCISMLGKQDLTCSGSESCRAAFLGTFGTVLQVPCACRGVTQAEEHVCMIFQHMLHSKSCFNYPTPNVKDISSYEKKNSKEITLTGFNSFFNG
In words: Biacore SPR, antibody captured, GFRAL injected. How it is done: as §1, §2

The target of test [6] is T1, human GFRAL expressed on cells. The test can be described thus: cell-based or functional assay. This is another data set of the same source.
Test [7] concerns the target T3, human GFRAL (analyte in Biacore assays). In words: Biacore SPR, antibody captured, human GFRAL injected. How it is done:
Exemplary humanized anti-GFRAL antibodies identified in Example 6 were assayed for their binding affinity to human GFRAL. Binding affinity measurements were made in Biacore based assays. For example, equilibrium dissociation constant (KD) measurements were carried out with purified antibodies to evaluate their binding to human GFRAL. Using methods described in Example II, anti-mouse Fc antibody (Sigma-Aldrich, St. Louis, Mo.) was immobilized on all four flow cells of a CM5 chip using amine coupling reagents (GE Healthcare LifeSciences, Piscataway, N.J.). Purified humanized anti-GFRAL antibodies were captured (˜100 RUs) on flow cells 2, 3 and 4 using flow cell 1 as a reference. This was followed by injection of human GFRAL in PBS-P buffer) at a flow rate of 70 μL/min and the binding kinetics were evaluated at 25° C.

Numbering of substitutions follows the chain as printed. Read-outs that look alike come from different tables or passages of the source. Where only a bound is given, the exact number is not on record here.

B1: antibody designated 2A9 (antibody, V domains shown)
VH: EVKLVESGGGLVKPGGSLKLSCAASGFTFSTYAMSWVRQTPEKRLEWVASITSGGTTYYTDSVKGRFTISRDNARNILYLQMSSLRSEDTAMYYCARDGNFYYYGMDYWGQGTSVTVSS
VL: DIVMTQSQKFMSTSVGDRVSITCKASQNVGTAVAWYQQKPGQSPKILIYSASNRFTGVPDRFTGSGSGTDFTLTISNMQSEDLADYFCQQYSSYFTFGGGTKLELK
notes: mouse hybridoma monoclonal
Regarding B1, the “IC50, ELK1-luciferase reporter (hGFRAL/hRET)” value (from here on “IC50 … (hGFRAL/hRET)”) in test [1] is 3.71 nM. The “IC50, ELK1-luciferase reporter (mGFRAL/mRET)” value (“IC50 … (mGFRAL/mRET)” for short) in test [2] is 7.87 nM. In test [3], the “IC50, ERK phosphorylation in U2OS hGFRAL/hRET cells” value (“IC50 … in U2OS hGFRAL/hRET cells” below) was 0.94 nM. In test [4], this molecule came in with a Kd of 0.25 nM and a koff of 0.000153 s⁻¹. In test [5], this molecule displayed a Kd of 3.6 nM and a koff of 0.0029 s⁻¹.

B2: humanized anti-GFRAL antibody HC-375d/LC-375a (antibody, V domains shown)
VH: QVQLVQSGAEVKKPGSSVKVSCKASGYTFTDYYINWVRQAPGQGLEWIGRIYPGNGNTYHNEKFKGRATLTADKSTSTAYMELSSLRSEDTAVYYCAREGLYYDYDRYFDYWGQGTLVTVSS
VL: DIVMTQSPDSLAVSLGERATINCRASESVDTYGNSFMHWYQQKPGQPPKLLIYLASNLESGVPDRFSGSGSGTDFTLTISSLQAEDVAVYYCHQNNEDPPAFGGGTKVEIK
notes: humanized 5F12
B2: the “IC50 … (hGFRAL/hRET)” value in test [6] is 3.86 nM. Besides, the Kd in test [7] is 0.074 nM.

B3: humanized anti-GFRAL antibody HC-375e/LC-375a (antibody, V domains shown)
VH: B2 VH with I48M, K74E
VL: B2 VL
notes: humanized 5F12
For B3, the “IC50 … (hGFRAL/hRET)” value in test [6] was 2.81 nM. In addition, the Kd in test [7] came out at 0.091 nM.

B4: humanized anti-GFRAL antibody HC-375d/LC-375g (antibody, IgG1, V domains shown)
VH: B2 VH
VL: B2 VL with M4L, G72R
notes: humanized 5F12
In the case of B4, the “IC50 … (hGFRAL/hRET)” value in test [6] was found to be 2.79 nM. In test [7], this molecule gave a Kd of 0.077 nM.

B5: antibody designated 17J16 (antibody, V domains shown)
VH: QVQLQQSGAELAKPGASVKMSCKTSGYTFTDYWIHWVKQRPGQGLEWIGYINPNSNYAEYNQKFKVKATLTADKSSSTAYLQLSRLTSEDSAVYYCARFDWNWYFHVWGAGSTVTVSS
VL: DVALTQIPLTLSVTVGQPASISCKSSQSLSDSDGKTYLNWLLQKPGQSPKRLIYLVSRLGSGVPDRFTGSGSGADFTLKISRVEAEDLGVYYCWQGTHFPQTFGGGTKLEIK
notes: mouse hybridoma monoclonal
Take B5: in test [1], the “IC50 … (hGFRAL/hRET)” value stood at 0.666 nM. The “IC50 … (mGFRAL/mRET)” value in test [2] was 0.407 nM. Moreover, the “IC50 … in U2OS hGFRAL/hRET cells” value in test [3] worked out at 0.1 nM. Further, the equilibrium dissociation constant (Kd) in test [4] and in test [5] was < 0.1 nM in each case. Moreover, the koff is ~1e-05 s⁻¹ in test [4] and 1e-05 s⁻¹ in test [5].

B6: antibody designated 24G2 (antibody, V domains shown)
VH: QVQLQQSGAELLKPGASVKLSCKASGYTFTTYWMHWVKQRPGQGLEWIGMIHPNSGSSNYNEKFKNKATLTVDKSSSTAYMQLSSLTSEDSAVYFCARSDYGFIPYFDYWGQGTTLTVSS
VL: DILLTQSPAILSVSPGERVSFSCRASQSIGTSIHWYQQRTNGSPRLLIKYASESISGIPSRFSGSGSGTDFTLIINSVESEDIADYYCQQSNSWPTFTFGAGTKLELK
notes: mouse hybridoma monoclonal
With B6, the “IC50 … (hGFRAL/hRET)” value in test [1] was found to be 18.9 nM. For the same molecule, the “IC50 … (mGFRAL/mRET)” value in test [2] was 8.32 nM. Also, the “IC50 … in U2OS hGFRAL/hRET cells” value in test [3] was found to be 1.86 nM. Further, the Kd is 1.4 nM in test [4] and 5.02 nM in test [5]. For the same molecule, the koff in test [4] was 0.000696 s⁻¹; in test [5], 0.00173 s⁻¹.

B7: antibody designated 5A20 (antibody, V domains shown)
VH: QVQLQQSGPELMKPGASVILSCKAIGYTFTDYWIEWVKERPGHGLEWIGEILLGSDSIHFNEKFKGKATISADTSSNTAYMQLSSLTTEDSAIYYCVRQDWNWYFDVWGTGTTVTVSS
VL: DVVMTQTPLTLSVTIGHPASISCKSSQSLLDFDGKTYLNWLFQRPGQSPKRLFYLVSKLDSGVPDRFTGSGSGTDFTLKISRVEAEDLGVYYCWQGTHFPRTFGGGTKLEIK
notes: mouse hybridoma monoclonal
B7: in test [1], the “IC50 … (hGFRAL/hRET)” value stood at 3.19 nM. The “IC50 … (mGFRAL/mRET)” value in test [2] stood at 0.6 nM. Besides, the “IC50 … in U2OS hGFRAL/hRET cells” value in test [3] was 1.8 nM. The Kd in test [4] was 0.081 nM; in test [5] it was < 0.1 nM. Moreover, the koff worked out at 3.32e-05 s⁻¹ in test [4] and 0.0004 s⁻¹ in test [5].
